± gives the uncertainty stated by the source.
Assay: self-splicing fitness, log relative to wild type (ln ratio); higher = more splicing; Tetrahymena group I intron in knt gene, E. coli kanamycin selection, DiMSum; sequences stand for … in CUCUCU…GGAGGGAAAAGUUAUCAGGCAUGCACCUGGUAGCUAGUCUUUAAACCAAUAGAUUGCAUCGGUUUAAAAGGCAAGACCGUCAAAUUGCGGGAAAGGGGUCAACAGCCGUUCAGUACCAAGUCUCAGGGGAAACUUUGAGAUGGCCUUGCAAAGGGUAUGGUAAUAAGCUGACGGACAUGGUCCUAACCACGCAGCCAAGUCCUAAGUCAACAGAUCUUCUGUUGAUAUGGAUGCAGUUCACAGACUAAAUGUCGGUCGGGGAAGAUGUAUUCUUCUCAUAAGAUAUAGUCGGACCUCUCCUUAAUGGGAGCUAGCGGAUGAAGUGAUGCAACACUGGAGCCGCUGGGAACUAAUUUGUAUGCGAAAGUAUAUUGAUUAGUUUUGGAGUACUCGUGGUCG
Method in brief: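 Fitness was computed with DiMSum as the error-weighted combination of replicate fold changes, kanamycin versus none, each normalised to wild type. The library randomised all eight intron nucleotides of the P1ex region, with the intron placed in the knt kanamycin-resistance gene on pET-22b(+) in E. coli BL21(DE3). Six replicate transformations were grown overnight at 37°C or 30°C on LB agar with or without 25 μg/mL kanamycin, plus 100 μg/mL carbenicillin, 50 μM IPTG and 0.2% rhamnose. Pooled colonies were amplicon-sequenced on an Illumina HiSeq 2500.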

Sequence	self-splicing fitness (ln) (30 °C)	self-splicing fitness (ln) (37 °C)
AUGUAGCAAUAUUACGUAGU	-2.89 ± 0.18	-1.42 ± 0.15
AUGUAGCAAUAUUACGUCAC		-2.81 ± 0.47
AUGUAGCAAUAUUACGUCAG	-3.5 ± 0.18	-2.25 ± 0.16
AUGUAGCAAUAUUACGUGCA	-0.921 ± 0.13	-1.01 ± 0.12
AUGUAGCAAUAUUACGUUGC	-3.43 ± 0.27	-3.08 ± 0.32
AUGUAGCAAUAUUACGUUUG	-3.35 ± 0.23	-2.72 ± 0.25
AUUAAGCAAUAUUACGAACU	-0.318 ± 0.12	0.315 ± 0.16
AUUAAGCAAUAUUACGACUU	0.276 ± 0.082	-0.0124 ± 0.11
AUUAAGCAAUAUUACGAUCG	-2.33 ± 0.12	-0.671 ± 0.12
AUUAAGCAAUAUUACGAUGA	-0.766 ± 0.11	-0.613 ± 0.12
AUUAAGCAAUAUUACGCACA	-0.525 ± 0.12	-0.202 ± 0.13
AUUAAGCAAUAUUACGCACG	-1.37 ± 0.16	-0.648 ± 0.17
AUUAAGCAAUAUUACGCAUA	-1.98 ± 0.24	-1.32 ± 0.22
AUUAAGCAAUAUUACGCCAC		-1.53 ± 0.39
AUUAAGCAAUAUUACGCCCU	-0.0606 ± 0.33	-0.149 ± 0.28
AUUAAGCAAUAUUACGCCGC		-2.04 ± 0.47
AUUAAGCAAUAUUACGCCUU	-0.293 ± 0.16	0.373 ± 0.19
AUUAAGCAAUAUUACGCGAG	-1.27 ± 0.1	-0.38 ± 0.097
AUUAAGCAAUAUUACGCGAU	-3.33 ± 0.23	-2.63 ± 0.34
AUUAAGCAAUAUUACGCUAG	-1.96 ± 0.16	-0.736 ± 0.18
AUUAAGCAAUAUUACGGGAG	-3.06 ± 0.23	-1.89 ± 0.18
AUUAAGCAAUAUUACGGUGA	-1.3 ± 0.13	-0.588 ± 0.14
AUUAAGCAAUAUUACGGUUC	-3.04 ± 0.35	-0.609 ± 0.31
AUUAAGCAAUAUUACGUAAA	-1.29 ± 0.12	-1.15 ± 0.14
AUUAAGCAAUAUUACGUAGU	-1.53 ± 0.071	-0.166 ± 0.085

Sequence	self-splicing fitness (ln) (30 °C)	self-splicing fitness (ln) (37 °C)
AUUAAGCAAUAUUACGUCAG	-3.01 ± 0.24	-1.85 ± 0.21
AUUAAGCAAUAUUACGUGAG	-0.882 ± 0.049	-0.33 ± 0.081
AUUAAGCAAUAUUACGUGCU	-1.58 ± 0.15	-0.835 ± 0.14
AUUCAGCAAUAUUACGACAG	-2.39 ± 0.16	-0.849 ± 0.17
AUUCAGCAAUAUUACGACGA	-0.537 ± 0.1	-0.53 ± 0.12
AUUCAGCAAUAUUACGACGC	-0.246 ± 0.11	0.397 ± 0.14
AUUCAGCAAUAUUACGACUU	-0.122 ± 0.1	0.27 ± 0.11
AUUCAGCAAUAUUACGAGAG	-2.65 ± 0.11	-1.38 ± 0.1
AUUCAGCAAUAUUACGAGUG	-1.37 ± 0.062	-1.02 ± 0.082
AUUCAGCAAUAUUACGAUCC	-0.321 ± 0.19	-0.287 ± 0.25
AUUCAGCAAUAUUACGAUUA	-0.138 ± 0.097	0.146 ± 0.089
AUUCAGCAAUAUUACGAUUC	-1.62 ± 0.059	-0.407 ± 0.077
AUUCAGCAAUAUUACGAUUG	-1.88 ± 0.16	-1.05 ± 0.2
AUUCAGCAAUAUUACGAUUU	0.203 ± 0.088	0.898 ± 0.11
AUUCAGCAAUAUUACGCAAU	-2.4 ± 0.23	-0.772 ± 0.22
AUUCAGCAAUAUUACGCAUG	-1.3 ± 0.082	-0.553 ± 0.11
AUUCAGCAAUAUUACGCCCC	0.0239 ± 0.13	0.082 ± 0.23
AUUCAGCAAUAUUACGCCGU	-0.349 ± 0.15	0.177 ± 0.14
AUUCAGCAAUAUUACGCGAA	-1.9 ± 0.15	-1.73 ± 0.17
AUUCAGCAAUAUUACGCGUC	-1.11 ± 0.17	-0.615 ± 0.21
AUUCAGCAAUAUUACGCUCA	-0.0142 ± 0.092	-0.0382 ± 0.14
AUUCAGCAAUAUUACGGACU	0.0759 ± 0.063	0.414 ± 0.083
AUUCAGCAAUAUUACGGCAU	-0.321 ± 0.065	1.01 ± 0.1
AUUCAGCAAUAUUACGGUCU	-0.633 ± 0.073	0.126 ± 0.093
AUUCAGCAAUAUUACGGUUC	-1.64 ± 0.13	-0.855 ± 0.16

Sequence	self-splicing fitness (ln) (30 °C)	self-splicing fitness (ln) (37 °C)
AUUCAGCAAUAUUACGUAAC	-0.841 ± 0.17	1.08 ± 0.19
AUUCAGCAAUAUUACGUAGU	-0.994 ± 0.047	-0.0257 ± 0.069
AUUCAGCAAUAUUACGUCAU	-0.863 ± 0.059	0.0811 ± 0.071
AUUCAGCAAUAUUACGUGAA	-0.88 ± 0.065	-0.398 ± 0.084
AUUCAGCAAUAUUACGUGCU	-2.95 ± 0.2	-1.81 ± 0.3
AUUCAGCAAUAUUACGUUAG	-3.78 ± 0.15	-1.52 ± 0.1
AUUGAGCAAUAUUACGAAUG	-2.9 ± 0.21	-3.15 ± 0.3
AUUGAGCAAUAUUACGACGC	-2.27 ± 0.22	-2.35 ± 0.28
AUUGAGCAAUAUUACGAGCA	-3.01 ± 0.47	-1.93 ± 0.42
AUUGAGCAAUAUUACGAGGC	-3.05 ± 0.36	-2.78 ± 0.4
AUUGAGCAAUAUUACGAUAC	-3.01 ± 0.42	-1.65 ± 0.34
AUUGAGCAAUAUUACGAUUC	-2.51 ± 0.22	-2.86 ± 0.47
AUUGAGCAAUAUUACGCAAA	-3.02 ± 0.29	
AUUGAGCAAUAUUACGCCCG	-3.02 ± 0.47	
AUUGAGCAAUAUUACGCCGG	-2.87 ± 0.33	-2.53 ± 0.48
AUUGAGCAAUAUUACGCUCC	-1.83 ± 0.44	
AUUGAGCAAUAUUACGGACU	-2.64 ± 0.21	-0.639 ± 0.14
AUUGAGCAAUAUUACGGAUC	-4.03 ± 0.47	-2.65 ± 0.38
AUUGAGCAAUAUUACGGCCC		0.679 ± 0.5
AUUGAGCAAUAUUACGGCGC	-0.865 ± 0.23	-0.384 ± 0.17
AUUGAGCAAUAUUACGGCUU	-2.62 ± 0.21	-0.8 ± 0.17
AUUGAGCAAUAUUACGUAUC	-1.48 ± 0.36	
AUUGAGCAAUAUUACGUAUU	-4.59 ± 0.38	-1.25 ± 0.16
AUUGAGCAAUAUUACGUCAC	-3.9 ± 0.34	-2.34 ± 0.39
AUUGAGCAAUAUUACGUCCG	-2.58 ± 0.16	-2.91 ± 0.48

Sequence	self-splicing fitness (ln) (30 °C)	self-splicing fitness (ln) (37 °C)
AUUGAGCAAUAUUACGUCGC		-1.8 ± 0.46
AUUGAGCAAUAUUACGUCGU	-1.59 ± 0.15	-1.69 ± 0.17
AUUGAGCAAUAUUACGUCUA	-2.12 ± 0.17	-1.77 ± 0.21
AUUGAGCAAUAUUACGUGAU	-1.58 ± 0.14	-2.17 ± 0.22
AUUGAGCAAUAUUACGUGGG		-1.57 ± 0.19
AUUGAGCAAUAUUACGUUGC	-2.94 ± 0.33	-1.64 ± 0.18
AUUUAGCAAUAUUACGAAAC	-2.83 ± 0.22	-2 ± 0.27
AUUUAGCAAUAUUACGAAAG	-2.86 ± 0.25	-0.748 ± 0.17
AUUUAGCAAUAUUACGACAG	-2.19 ± 0.24	0.257 ± 0.26
AUUUAGCAAUAUUACGACUU	-0.092 ± 0.059	0.239 ± 0.067
AUUUAGCAAUAUUACGAGUA	-2.95 ± 0.27	-0.93 ± 0.18
AUUUAGCAAUAUUACGAUCA	-1.08 ± 0.19	0.104 ± 0.16
AUUUAGCAAUAUUACGCACA	-0.136 ± 0.093	-0.202 ± 0.095
AUUUAGCAAUAUUACGCCGC	-1.8 ± 0.41	-1.82 ± 0.48
AUUUAGCAAUAUUACGCCUG	-1.23 ± 0.12	-0.529 ± 0.12
AUUUAGCAAUAUUACGGAAA	-2.75 ± 0.29	-1.47 ± 0.21
AUUUAGCAAUAUUACGGAGC	-3.49 ± 0.45	
AUUUAGCAAUAUUACGGGUA	-2.72 ± 0.3	-1.17 ± 0.17
AUUUAGCAAUAUUACGUCAA	-3.4 ± 0.29	-2.14 ± 0.34
AUUUAGCAAUAUUACGUCAU	-1.76 ± 0.1	-0.485 ± 0.1
AUUUAGCAAUAUUACGUGCC	-0.606 ± 0.15	0.118 ± 0.14
AUUUAGCAAUAUUACGUGGG	-3.33 ± 0.3	-2.44 ± 0.3
AUUUAGCAAUAUUACGUGGU	-2.91 ± 0.18	-2.45 ± 0.29
